T1: human PRTG polypeptide (human, UniProt Q2VWP7 36-952, limits assumed)
T1 construct: also called protogenin
T1 sequence (looked up): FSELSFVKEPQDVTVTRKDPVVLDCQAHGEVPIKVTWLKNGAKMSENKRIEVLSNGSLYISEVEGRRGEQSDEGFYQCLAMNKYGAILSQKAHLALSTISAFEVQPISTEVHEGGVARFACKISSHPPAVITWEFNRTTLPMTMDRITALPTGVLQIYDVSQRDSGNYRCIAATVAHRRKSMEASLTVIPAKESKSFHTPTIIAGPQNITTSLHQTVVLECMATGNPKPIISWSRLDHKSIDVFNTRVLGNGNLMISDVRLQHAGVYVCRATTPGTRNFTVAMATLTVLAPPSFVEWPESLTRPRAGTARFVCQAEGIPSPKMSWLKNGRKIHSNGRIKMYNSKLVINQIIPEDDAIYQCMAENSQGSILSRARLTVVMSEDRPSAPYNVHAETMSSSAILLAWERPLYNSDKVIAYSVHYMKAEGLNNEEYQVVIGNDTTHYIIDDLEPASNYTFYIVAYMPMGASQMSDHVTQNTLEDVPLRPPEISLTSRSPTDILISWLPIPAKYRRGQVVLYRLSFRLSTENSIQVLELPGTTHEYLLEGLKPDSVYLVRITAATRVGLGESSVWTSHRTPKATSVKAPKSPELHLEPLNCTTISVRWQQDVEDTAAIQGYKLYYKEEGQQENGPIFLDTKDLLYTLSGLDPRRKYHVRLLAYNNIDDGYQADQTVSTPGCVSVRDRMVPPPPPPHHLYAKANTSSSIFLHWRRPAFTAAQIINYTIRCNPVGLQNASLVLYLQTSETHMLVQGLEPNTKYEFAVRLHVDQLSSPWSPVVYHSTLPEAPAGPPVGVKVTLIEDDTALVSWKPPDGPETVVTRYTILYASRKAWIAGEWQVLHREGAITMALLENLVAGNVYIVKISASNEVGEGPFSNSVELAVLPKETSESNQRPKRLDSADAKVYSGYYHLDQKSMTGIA


The binders below were run against T1, human PRTG polypeptide (assay: ELISA and SPR (Blitz) as stated; which method gave the EC50 is not said).
Description: Binding affinity and specificity to a human PRTG polypeptide were tested using an ELISA and SPR (Blitz). […] Clone #1 was determined to bind to the human PRTG fibronectin type-III 1 domain; clone #2 was determined to bind to the human PRTG fibronectin type-III 3 domain; and clones #3, #4, #5, #6, #7, and #8 were determined to bind to the human PRTG fibronectin type-III 5 domain. Clone #1 binding to the human PRTG fibronectin type-III 1 domain was determined by ELISA. Clone #2 binding was based on the panning being performed using a PRTG fibronectin type-III 3 domain; and clones #3, #4, #5, #6, #7, and #8 binding was based on the panning being performed using a PRTG fibronectin type-III 5 domain.

Row | Binder | EC50 [nM]
1 | VH domain Clone #2 (other, also called #2 (VH domain)) VH: EVQLVESGGGLVQPGGSLRLSCKGSGFTFSNFAMNWVRQAPGKGLEWVSAISGSGGSTYYADSVKGRFTISRDNSKNTLYLQMNSLRAEDTALYYCARGPDYYGSGSHGWFDPWGQGTLVTVSS | 30
2 | VH domain Clone #4 (other, also called #4 (VH domain)) VH: EVQLVESGGGLVQPGGSLRLSCAASGSAFGSHWMHWVRQAPGKGLEWVSSISSGGSSIYYADSVKGRFTISRDNSKNTLYLQMNSLRAEDTAVYYCARVRRDDDSNYRPFDVWGQGTMVTVSS | 0.9
3 | VH domain Clone #3 (other, also called #3 (VH domain)) VH: EVQLVESGGGLVQPGGSLRLSCAASYFDFDSYEMSWVRQAPGKALEWLGRIYTSGTTNYNPSLKSRVTISRDNSKNTLYLQMNSLRAEDTATYYCAMTGPYYDSSGYYPARHAEYFQHWGQGTLVTVSS | 0.75
4 | VH domain Clone #1 (other, also called #1 (VH domain)) VH: EVQLVESGGGLVQPGGSLRLSCKASGFTVSSNYMHWVRQAPGKGLEWIGGINHSGRTNYKSSLKSRVTISRDNSKNTLYLQMNSLRAEDTAVYYCARLPPSRDGYNYADYWGQGTLVTVSS | 2.8

Results, then the binder that gave them:

Row | EC50 [nM] | Binder
5 | 1.35 | VH domain Clone #5 (other, also called #5 (VH domain)) VH: EVQLVESGGGLVQPGGSLRLSCKGSGFNFGDYAMHWVRQAPGKALEWIGYIYNTGSTKYNPSLKSLVTISRDNSKNTLYLQMNSLRAEDTATYYCVSTVTNGVEYFQHWGQGTLVTVSS
6 | 6.25 | VH domain Clone #6 (other, also called #6 (VH domain)) VH: EVQLVESGGGLVQPGGSLRLSCAASGFTFSNYGMSWVRQAPGQRLEWIGWIDTKTGNPRYGQGFTGRFTISRDNSKNTLYLQMNSLRAEDTATYYCVSTVPNGVEYFQHWGQGTLVTVSS
7 | 0.29 | VH domain Clone #7 (other, also called #7 (VH domain)) VH: EVQLVESGGGLVQPGGSLRLSCAASGFTFSNAWMSWVRQAPGKGLEWIGRIYSSGSTNYNPSLKSRVTISRDNSKNTLYLQMNSLRAEDTALYYCASTYRSSSGEYFQHWGQGTLVTVSSS
8 | 0.81 | VH domain Clone #8 (other, also called #8 (VH domain)) VH: EVQLVESGGGLVQPGGSLRLSCKGSGFTFSNYWMHWVRQAPGKGLEWVSAISGSGGSTYYADSVKGRFTISRDNSKNTLYLQMNSLRAEDTATYYCATLCRGDSCYSPFDPWGQGTLVTVSSS
